From patent US20250163149A1, “ANTI-RAGE ANTIBODY” (Swansea University, priority 2022, published 2025)

What was measured:
[1] = molecular target: T1, RAGE synthetic peptide (S155) (Homo sapiens, UniProt Q15109); assay: ELISA screening of purified anti-RAGE antibody clones; format: binding; settings: BSA-conjugated peptide S155; serial dilutions of antibody; 6 murine clones compared
T1 construct: purchased Biorad; host or cells: chemical synthesis
Experimental: A 96-well plate was coated with 5 μg/ml of RAGE synthetic peptides or RAGE recombinant protein diluted in phosphate-buffered saline (pH 7.4) overnight at 4° C. The solution was removed, washed with PBS-Tween (PBST) and the plate was blocked with ELISA ultrablock buffer (Biorad) for 1 h at room temperature. After blocking, the plate was washed with PBST and a range of concentrations of α-RAGE antibodies was applied to the plate for 2 h at room temperature. The plate was washed thoroughly with PBST and incubated with HRP-conjugated anti-mouse antibodies diluted 1:1000 in PBS-Tween. After washes with PBST, TMB Core+ substrate solution (Biorad) was added to each well and incubated at room temperature for 30 minutes. 0.2M H2SO4 was used as a stop solution. Absorbance at 450 nm was measured in a Biorad absorbance microplate reader.

[2] = molecular target: T2, RAGE recombinant protein (Human rRAGE) (Homo sapiens, UniProt Q15109); assay: Surface plasmon resonance binding kinetics (Biacore T200), recombinant protein analyte; settings: analyte RAGE recombinant protein, or RAGE synthetic peptide, not separated
T2 construct: Human rRAGE=Full-length RAGE recombinant protein from Merck; purchased Merck
T2 sequence (Q15109 23-404): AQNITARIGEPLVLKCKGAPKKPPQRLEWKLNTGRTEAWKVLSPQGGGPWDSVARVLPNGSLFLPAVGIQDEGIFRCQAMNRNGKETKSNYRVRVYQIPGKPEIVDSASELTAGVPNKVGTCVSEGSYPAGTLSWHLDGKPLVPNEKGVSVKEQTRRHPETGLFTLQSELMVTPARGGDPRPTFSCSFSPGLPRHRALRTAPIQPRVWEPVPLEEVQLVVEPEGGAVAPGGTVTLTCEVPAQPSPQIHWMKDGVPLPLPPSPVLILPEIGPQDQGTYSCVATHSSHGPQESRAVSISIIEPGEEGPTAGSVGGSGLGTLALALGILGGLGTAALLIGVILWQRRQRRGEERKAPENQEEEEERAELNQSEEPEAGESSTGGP
Experimental: For on-rate and off-rate screening, Biacore™ T200 system (Cytiva, Uppsala, Sweden) was used to perform SPR analysis with 1×HBS-EP+ buffer (0.01M Hepes, 0.15M NaCl, 0.003M ethylenediaminetetraacetic acid, and 0.05% Surfactant P20, pH 7.4) (BR100669) used as sample and running buffer. The analysis temperature at the sensor chip surface and within the compartment was set to 25° C. Firstly, pH scouting with 10 mM sodium acetate buffer 4.0 (BR-1003-49), 10 mM sodium acetate buffer 4.5 (BR-1003-50), 10 mM sodium acetate buffer 5.0 (BR-1003-51) and 10 mM sodium acetate buffer 5.5 (BR-1003-52) was performed to identify the optimal pH required for ligand (α-RAGE antibodies) immobilization. This was followed by diluting the ligand with the appropriate Acetate buffer to at least 10 μg/mL. The ligand immobilization on the surface Series S Sensor Chip CM5 (29-1496-03, Cytiva) was performed using the Amine Coupling Kit (BR100050, Cytiva) containing 1-Etyhyl-3-(3-dimethylaminopropyl)-carbodiimide hydrochloride (EDC), N-Hydroxysuccinimide (NHS) and 1.0M ethanolamine-HcL PH 8.5 in accordance with the manufacturer's instructions. For each experimental run, the ligand was immobilized in flow cells 2 or 4 while flow cells 1 or 3 were left unmodified. Flow cells 2 and 4 were used as active flow cells while flow cells 1 and 3 were used as reference flow cells. Ligand immobilization levels were typically within the range 500-900 RU for the kinetic experiments and injected with a flow rate of 10 μL/min and contact time of 300 s. Analytes (RAGE recombinant protein and synthetic peptides) were injected for 120 s with a flow rate of 30 μL/min and dissociation time of 600 s run in order of increasing concentration over the reference and active flow cells using a multi-cycle kinetic approach with five-seven concentration range. Following each binding cycle, the surface was regenerated with a 30 s injection of 10 mM Glycine-HcL, pH 2.5 regeneration solution (BR-1003-56), removing the bound antibody with a contact time of 30 s, flow rate of 30 μL/min and a stabilization period of Os. […]

[3] = test system: RAGE; assay: Western blot on protein extracts from ovarian cancer cell lines (OCCL); set-up: species or system human; settings: whole-cell extracts of SKOV3, OVCAR3, A2780 and cisplatin-resistant lines; antibody 1 μg/mL
RAGE, sequence (Q15109 23-317 limits assumed): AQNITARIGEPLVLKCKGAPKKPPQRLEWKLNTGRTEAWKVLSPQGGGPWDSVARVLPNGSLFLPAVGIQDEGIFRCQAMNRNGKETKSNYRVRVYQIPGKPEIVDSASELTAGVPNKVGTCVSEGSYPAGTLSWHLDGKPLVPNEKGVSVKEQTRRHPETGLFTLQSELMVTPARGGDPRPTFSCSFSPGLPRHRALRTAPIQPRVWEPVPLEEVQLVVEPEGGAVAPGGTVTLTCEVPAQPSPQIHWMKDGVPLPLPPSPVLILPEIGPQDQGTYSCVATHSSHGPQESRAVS
Experimental: Confluent cultures of cells were lysed in ice cold RIPA buffer (Sigma-Aldrich), whole-cell protein extracts were quantified with DC protein assay, 30 μg/lane were resolved by SDS-PAGE on TGX precast gels, transferred to mini PDVF membranes, blocked 1 h at RT in 5% Bovine Serum Albumin (BSA) in TBST (Tris Buffered Saline, 0.1% Tween-20) and incubated o/n at 4° C. in the same solution with 1 μg/mL of mA9 (sc-365154, Santa Cruz Biotechnology) antibody, mHA9 antibody or hHA9 antibody, or GAPDH (Santa Cruz Biotechnology) as loading control. Membranes were then washed with TBST and incubated 1 h at RT with 0.1 μg/mL of IgG horseradish peroxidase secondary antibody (GE Healthcare) or […] of Goat F(ab′) 2 Anti-Mouse IgG-F(ab′) 2 horseradish peroxidase secondary antibody (Abcam). Target proteins were visualised after incubation with Clarity Western ECL Substrate and imaged using a ChemiDoc System Bio-Rad Imager. Bands were quantified with ImageLab software. Unless stated all the materials specified above were obtained from Bio-Rad Laboratories.

[4] = molecular target: RAGE (Homo sapiens, UniProt Q15109); assay: Western blot on protein extracts from human healthy tissues; settings: brain, breast, kidney, liver, lung, ovary, pancreas, spleen and uterus
RAGE (Homo sapiens, UniProt Q15109), sequence (Q15109 23-404): as the sequence (Q15109 23-404) above

[5] = test system: SKOV3 cells; assay: Internalisation assay on SKOV3 cells; format: cell-based, human; settings: 4 h or 24 h at 37° C., compared with other clones and AB11451
Experimental: To screen internalization capacity and traffic to lysosomes of α-RAGE antibodies, all the primary antibodies used in the screening were conjugated to pHAb Amine Reactive Dye following manufacturer's instructions (Promega, UK, Cat. No. G983). This type of dye emits fluorescence when traffics to acidic environments (late endosome and lysosome). For this purpose, 1.5×10^4 SKOV3 cells/well were seeded in 8-well chamber slides (Ibidi) in 300 μl of stripped medium and cultured for 24 h in a humidified, 5% CO2 in air atmosphere incubator at 37° C. After culture, cells were washed in pre-warmed (37° C.) Dulbecco's phosphate buffered saline (DPBS) and slides placed on ice. Cells were treated with control medium or medium containing one of the α-RAGE antibodies conjugated to pH-dye at 10 μg/ml, and the 8-well chamber slides were incubated on ice for 30 minutes. Slides were then transferred to the incubator at 37° C. for 4 h or 24 h. After internalization time, cells were washed in DPBS, fixed in 4% paraformaldehyde for 20 min and permeabilized with 0.1% Triton X-100 (Sigma) for 10 minutes at 4° C. Cells were washed with PBS extensively between all steps, counterstained before imaging with Hoechst (Life Technologies™) and imaged using a LSM710 confocal fluorescence microscopy system (Zeiss, UK). Unconjugated α-RAGE antibodies were also used in the internalisation assay. In this case were visualized using Alexa-fluorophore secondary antibodies as described in the immunofluorescence method.

[6] = molecular target: synthetic peptide S155 of the RAGE V-domain (amino acids 39-65) (human); assay: ELISA, BSA-conjugated peptide S155 on the plate, two-fold dilutions of antibody, HRP anti-mouse, OD 450 nm
synthetic peptide S155 of the RAGE V-domain (amino acids 39-65) (human), sequence (peptide, as listed by the source): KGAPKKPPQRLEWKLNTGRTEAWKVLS

[7] = molecular target: Human rRAGE, full-length RAGE recombinant protein from Merck (human) (UniProt Q15109); assay: SPR (Biacore T200), antibody amine-coupled to a CM5 chip as ligand, RAGE recombinant protein (Merck) as analyte, multi-cycle kinetics, 1:1 fit
Human rRAGE, full-length RAGE recombinant protein from Merck (human), sequence (Q15109 23-404 limits assumed): as the sequence (Q15109 23-404) above

[8] = molecular target: synthetic peptide S155 of the RAGE V-domain (amino acids 39-65) (human); assay: SPR (Biacore T200), antibody amine-coupled to a CM5 chip as ligand, RAGE peptide S155 (BioRad) as analyte, multi-cycle kinetics, 1:1 fit; 'No steady state.'

affinity interaction by SPR (summary statement) [2] | RAGE expression detected in human healthy tissues [4] | EC50 (read off the curve) [6] [µg/mL] | Kd [7] [µM] | koff [7] [s⁻¹] | kon [7] [M⁻¹ s⁻¹] | Kd [8] [µM] | koff [8] [s⁻¹] | kon [8] [M⁻¹ s⁻¹] | Molecule | binding to immobilised RAGE synthetic peptide [1] | RAGE isoform detected by western blot [3] | uptake (internalisation), secondary antibody detection [5]
weak affinity interaction | absent or very low expression | – | – | – | – | – | – | – | mHA9: murine version of anti-RAGE antibody clone HA9 (antibody, V domains shown) VH: EVKLVETGGGLVQPGRPMKLSCVASGFTLSDHWMNWVRQSPEKGLEWVAQIRNRPYKFEKYYSDSVKGRFTISRDDSKNSVYLQMNNLRAEDMGIYYCSSYRYGLAYWGQGTLVTVST VL: DNLLTQSPAILSVSPGERVSFSCRASQTIDTRIHWYQQRKNGSPRLLIRYISESLSGIPSRFSGSGSGTEFTLTINSVESEDIADYYCQQTESWPITFGSGTKLEIK | highest affinity for the peptide sequence antigen | able to detect expression levels of full-length transmembrane RAGE | –
– | – | – | – | – | – | – | – | – | HA9: anti-RAGE monoclonal antibody clone, VH SEQ ID NO: 7, VL SEQ ID NO: 8, raised against RAGE aa 39-65 (antibody, V domains shown) VH: EVKLVETGGGLVQPGRPMKLSCVASGFTLSDHWMNWVRQSPEKGLEWVAQIRNRPYKFEKYYSDSVKGRFTISRDDSKNSVYLQMNNLRAEDMGIYYCSSYRYGLAYWGQGTLVTVST VL: DNLLTQSPAILSVSPGERVSFSCRASQTIDTRIHWYQQRKNGSPRLLIRYISESLSGIPSRFSGSGSGTEFTLTINSVESEDIADYYCQQTESWPITFGSGTKLEIK | best binding response to the antigen | – | highest uptake levels
– | – | 1 | 6.94 | 0.00561 | 808 | 0.2 | 0.00515 | 25000 | murine ID9 anti-RAGE monoclonal antibody (antibody, part only; not given: Light chain variable region, V domains shown, part only) VH: QVTLKESGPGILKPSQTLSLTCSFSGFSLSTSGMGVGWIRQPSGKGLEWLAHIWWDDDKYYKPSLKSQVTISKDTSRNQVFLKITSVDTADTATYYCARSRYYGSSGMDYWGQGTSVTVSS | – | – | –
